The record followed here is paper PMC9400332.

For the data set the following is noted: glycan lost.

B1: Cedar virus fusion protein F (CedV F): g2 (protein)
parent chain: MSNKRTTVLIIISYTLFYLNNAAIVGFDFDKLNKIGVVQGRVLNYKIKGDPMTKDLVLKFIPNIVNITECVREPLSRYNETVRRLLLPIHNMLGLYLNNTNAKMTGLMIAGVIMGGIAIGIATAAQITAGFALYEAKKNTENIQKLTDSIMKTQDSIDKLTDSVGTSILILNKLQTYINNQLVPNLELLSCRQNKIEFDLMLTKYLVDLMTVIGPNINNPVNKDMTIQSLSLLFDGNYDIMMSELGYTPQDFLDLIESKSITGQIIYVDMENLYVVIRTYLPTLIEVPDAQIYEFNKITMSSNGGEYLSTIPNFILIRGNYMSNIDVATCYMTKASVICNQDYSLPMSQNLRSCYQGETEYCPVEAVIASHSPRFALTNGVIFANCINTICRCQDNGKTITQNINQFVSMIDNSTCNDVMVDKFTIKVGKYMGRKDINNINIQIGPQIIIDKVDLSNEINKMNQSLKDSIFYLREAKRILDSVNISLISPSVQLFLIIISVLSFIILLIIIVYLYCKSKHSYKYNKFIDDPDYYNDYKRERINGKASKSNNIYYVGD
Consider B1, for which the localisation_or_trafficking entry is “increases”; the “other: cell-cell fusion activity” value is “decreases”; the “other: cell-cell fusion activity, fold_change” value is reported as “decreases”; the “other: proteolytic processing” value is given as “no change”.

B2: Cedar virus fusion protein F (CedV F): g4 (protein)
parent chain: B1 parent chain
As for B2, the expression_or_secretion entry is given as “no change”.

B3: Cedar virus fusion protein F (CedV F): g1 (protein)
parent chain: B1 parent chain
With B3, the expression_or_secretion result is reported as “no change” and the localisation_or_trafficking entry is “decreases”.

B4: Cedar virus fusion protein F (CedV F): g6 (protein)
parent chain: B1 parent chain
Take B4: the localisation_or_trafficking entry was “decreases” and the “other: proteolytic processing” value is listed as “no change”.

B5: Cedar virus fusion protein F (CedV F): g3 (protein)
parent chain: B1 parent chain
In the case of B5, the localisation_or_trafficking entry is listed as “decreases” and the “other: proteolytic processing” value is on record as “no change”.
